Patent publication US20030148956A1 (PROCTER AND GAMBLE, published 2003)
Ends that are not written are not given here.

T1: corticotropin releasing factor 2 receptor
T1 sequence (Q13324 whole entry, species assumed, looked up): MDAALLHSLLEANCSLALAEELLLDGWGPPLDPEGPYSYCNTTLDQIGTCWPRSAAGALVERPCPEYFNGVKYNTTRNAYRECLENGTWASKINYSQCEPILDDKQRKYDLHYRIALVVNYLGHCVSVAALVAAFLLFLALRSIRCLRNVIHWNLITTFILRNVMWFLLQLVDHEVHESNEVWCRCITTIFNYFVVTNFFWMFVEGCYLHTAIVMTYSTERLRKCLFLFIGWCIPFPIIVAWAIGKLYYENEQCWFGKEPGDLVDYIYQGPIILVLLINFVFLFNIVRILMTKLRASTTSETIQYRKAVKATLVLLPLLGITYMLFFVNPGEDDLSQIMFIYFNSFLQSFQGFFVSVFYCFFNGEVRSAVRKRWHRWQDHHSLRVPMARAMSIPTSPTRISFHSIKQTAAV

T2: CRF2R
T2 sequence (Q13324 whole entry, species assumed, looked up): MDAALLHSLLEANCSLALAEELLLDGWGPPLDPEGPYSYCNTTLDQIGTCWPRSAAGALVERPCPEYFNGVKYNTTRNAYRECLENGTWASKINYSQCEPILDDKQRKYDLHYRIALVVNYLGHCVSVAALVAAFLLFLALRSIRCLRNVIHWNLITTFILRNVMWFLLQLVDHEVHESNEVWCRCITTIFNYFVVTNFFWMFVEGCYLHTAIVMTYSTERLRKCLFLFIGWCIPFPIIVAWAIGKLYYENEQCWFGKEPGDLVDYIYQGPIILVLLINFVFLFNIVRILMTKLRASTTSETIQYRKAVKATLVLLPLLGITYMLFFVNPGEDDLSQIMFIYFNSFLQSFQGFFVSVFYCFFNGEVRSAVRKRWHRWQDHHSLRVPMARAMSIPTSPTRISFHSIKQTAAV


Assays:
Assay in all cases: cell-based or functional assay
[1] = target: T1, corticotropin releasing factor 2 …
[2] = target: corticotropin releasing factor 1 receptor
[3] = target: T2, CRF2R
[4] = target: CRF1R

Row | Binder | CRF2R EC50 [1] [nM] | CRF2R Emax % [1] [%] | CRF1R EC50 [2] [nM] | CRF1R Emax % [2] [%] | CRF2R EC50 [3] [nM] | CRF2R Emax [3] [%] | CRF1R EC50 [4] [nM] | CRF1R Emax [4] [%]
1 | ZGPPISIDVPFQLLRKMIEIEKQEKEKQQAANNRLLLDTI (C-terminal amide) [SEQ ID NO 256] | 12.6 | 100 | 254 | 100 | – | – | – | –
2 | NDDPPISIDLPLFLLRNMIEMARIENEREQAGLNAKYLAEV-NH2 [SEQ ID NO 257] | 100 | 72.6 | 744 | 83.5 | – | – | – | –
3 | NDDPPISIDLPFQLLRNMIEMARIENEREQAGLNAKYLAEV-NH2 [SEQ ID NO 258] | 100 | 49.3 | 1000 | 23.6 | – | – | – | –
4 | NDDPPISIDLPLHLLRNMIEMARIENEREQAGLNAKYLAEV-NH2 [SEQ ID NO 259] | 100 | 65 | 820 | 83.6 | – | – | – | –
5 | NDDPPISIDLPFLLLRNMIEMARIENEREQAGLNAKYLAEV-NH2 [SEQ ID NO 260] | 100 | 89.3 | 834 | 89.7 | – | – | – | –
6 | NDDPPISIDLPFYLLRNMIEMARIENEREQAGLNAKYLAEV-NH2 [SEQ ID NO 261] | 100 | 95.3 | 274 | 100 | – | – | – | –
7 | NDDPPISIDLPFHLLRNMIEMARIENEREQAGLNAKYLAEV-NH2 [SEQ ID NO 262] | 100 | 92.2 | 408 | 100 | – | – | – | –
8 | DNPSLSIDLPYYLLRTLLELARTQSQRERAEQNAIIFASV-NH2 [SEQ ID NO 263] | 36.2 | 93 | 802 | 72 | – | – | – | –
9 | NDDPPISIDLPFFLLRNMIEMARIENEREQAGLNAKYLAEV-NH2 [SEQ ID NO 264] | 100 | 66.3 | 704 | 100 | – | – | – | –
10 | NDDPPISIDLPQYLLRNMIEMARIENEREQAGLNAKYLAEV-NH2 [SEQ ID NO 265] | 100 | 23.4 | 1000 | 9.3 | – | – | – | –
11 | NDDPPISIDLPTYLLRNMIEMARIENEREQAGLNAKYLAEV-NH2 [SEQ ID NO 266] | 100 | 19.4 | 1000 | 4.45 | – | – | – | –
12 | NDDPPISIDLPYYLLRNMIEMARIENEREQAGLNAKYLAEV-NH2 [SEQ ID NO 267] | 100 | 44.2 | 1000 | 22.8 | – | – | – | –
13 | NDDPPISIDLPLLLLRNMIEMARIENEREQAGLNAKYLAEV-NH2 [SEQ ID NO 268] | 100 | 59 | 1000 | 14.2 | – | – | – | –
14 | NDDPPISIDLPLILLRNMIEMARIENEREQAGLNAKYLAEV-NH2 [SEQ ID NO 269] | 100 | 77.3 | 1000 | 44.3 | – | – | – | –
15 | NDDPPISIDLPLQLLRNMIEMARIENEREQAGLNAKYLAEV-NH2 [SEQ ID NO 270] | 100 | 19.3 | 1000 | 7.85 | – | – | – | –
16 | NDDPPISIDLPLYLLRNMIEMARIENEREQAGLNAKYLAEV-NH2 [SEQ ID NO 271] | 48.1 | 69 | 815 | 80.7 | – | – | – | –
17 | ZGPPISIDLPFQLLRKVIEIEKQEKEKQQAANNAELLAEI (C-terminal amide) [SEQ ID NO 272] | 23.3 | 100 | 1000 | 51.1 | – | – | – | –
18 | ZGPPISIDLPFQLLRKVIEIEKQEKEKQQAANNAQLLAHI (C-terminal amide) [SEQ ID NO 273] | 31.3 | 100 | 1000 | 59.3 | – | – | – | –

Row | Binder | CRF2R EC50 [1] [nM] | CRF2R Emax % [1] [%] | CRF1R EC50 [2] [nM] | CRF1R Emax % [2] [%] | CRF2R EC50 [3] [nM] | CRF2R Emax [3] [%] | CRF1R EC50 [4] [nM] | CRF1R Emax [4] [%]
19 | ZGPPISIDLPFQLLRKVIEIEKQEKEKQQAANNAKLLAKI (C-terminal amide) [SEQ ID NO 274] | 13.8 | 100 | 508 | 80.9 | – | – | – | –
20 | ZGPPISIDLPFQLLRKVIEIEKQEKEKQQAANNANLLANI (C-terminal amide) [SEQ ID NO 275] | 46.6 | 100 | 1000 | 38.3 | – | – | – | –
21 | ZGPPISIDLPFQLLRKVIEIEKQEKEKQQAANNAQLLAQI (C-terminal amide) [SEQ ID NO 276] | 22.1 | 100 | 1000 | 75.7 | – | – | – | –
22 | ZGPPISIDLPFQLLRKVIEIEKQEKEKQQAANNAHLLAHI (C-terminal amide) [SEQ ID NO 277] | 28.2 | 100 | 1000 | 39.9 | – | – | – | –
23 | ZGPPISIDLPFQLLRKVIEIEKQEKEKQQAANNARLLDTI (C-terminal amide) [SEQ ID NO 278] | 19.6 | 100 | 1000 | 48.7 | – | – | – | –
24 | ZGPPISIDLPFQLLRKVIEIEKQEKEKQQAANNARLLARI (C-terminal amide) [SEQ ID NO 279] | 13.1 | 100 | 1000 | 93 | – | – | – | –
25 | ZGPPISIDLPIFLLRKVIEIEKQEKEKQQAANNALLLATI (C-terminal amide) [SEQ ID NO 280] | 100 | 82.3 | 1000 | 11.8 | – | – | – | –
26 | ZGPPISIDLPIFLLRKVIEIEKQEKEKQQAANNARLLARI (C-terminal amide) [SEQ ID NO 281] | 100 | 78.8 | 1000 | 12.2 | – | – | – | –
27 | ZGPPISIDLPIFLLRKMIEIEKQEKEKQQAANNARLLARI (C-terminal amide) [SEQ ID NO 282] | 25.8 | 60.8 | 1000 | 21.8 | – | – | – | –
28 | ZGPPISIDLPYQLLRKVIEIEKQEKEKQQAANNRLLLDTI (C-terminal amide) [SEQ ID NO 283] | 10.6 | 72 | 635 | 100 | – | – | – | –
29 | ZGPPISIDLPTWLLRKVIEIEKQEKEKQQAANNRLLLDTI (C-terminal amide) [SEQ ID NO 284] | 100 | 100 | 1000 | 27.7 | – | – | – | –
30 | ZGPPISIDLPQILLRKMIEIEKQEKEKQQAANNARLLARI (C-terminal amide) [SEQ ID NO 285] | 13.9 | 97.1 | 1000 | 11.1 | – | – | – | –
31 | ZGPPISIDLPWHLLRKMIEIEKQEKEKQQAANNRLLLDTI (C-terminal amide) [SEQ ID NO 209] | – | – | – | – | 7.4 | 93 | 26.4 | 80
32 | ZGPPISIDLPWQLLRKMIEIEKQEKEKQQAANNRLLLDTI (C-terminal amide) [SEQ ID NO 210] | – | – | – | – | 10.2 | 97 | 43.5 | 90
33 | ZGPPISIDLPAQLLRKMIEIEKQEKEKQQAANNRLLLDTI (C-terminal amide) [SEQ ID NO 211] | – | – | – | – | 59.5 | 100 | 826 | 37
34 | ZGPPISIDLPFQLLRKMIEIEKQEKEKQQATTNARLLDRV (C-terminal amide) [SEQ ID NO 22] | – | – | – | – | 8.33 | 100 | 1000 | 64
35 | ZGPPISIDLPFQLLRKMIEIEKQEKEKQQATTNARLLARV (C-terminal amide) [SEQ ID NO 23] | – | – | – | – | 10.2 | 100 | 1000 | 82
36 | ZGPPISIDLPITLLRKMIEIEKQEKEKQQAANNRLLLDTI (C-terminal amide) [SEQ ID NO 24] | – | – | – | – | 43.1 | 100 | > 1000 | 18
